± gives the uncertainty stated by the source.
Test: amyloid nucleation score (Sup35N fusion, yeast selection) (log enrichment); library NNK2; higher = more nucleation; inactive = no reads after selection
How it was run: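 Using DiMSum, nucleation scores were taken as the log enrichment of output over input reads, centred on the mode score of non-aggregating sequences. The input and output reads came from Illumina sequencing of plasmid inserts, with sequences under 100 input reads excluded. The yeast were psi-negative, expressed Sup35N fused to peptides of 20 random codons, were induced with 100 μM copper sulfate for 24 hours, and were grown 7 days at 30°C on medium lacking adenine and uracil.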

| Substance | amyloid nucleation score |
| --- | --- |
| EDFMRCRVWVSRGLVPSWGS | 0.747 ± 0.24 |
| LAQLQ | -0.504 ± 0.78 |
| FVNIFIIHADYVGHRPAELR | 9.092 ± 0.081 |
| VICLCVLFRGSCRIKILDIV | -1.37 ± 1.1 |
| PSIKCTLFYSVTYLFMWGRK | -0.406 ± 0.63 |
| GGQLGGPWPANSLYNVTAVT | -0.075 ± 0.31 |
| QNGTERGFFCSKLNRSVTLL | 0.358 ± 0.65 |
| RSMSRRGFLCLHR | 0.948 ± 0.67 |
| NGTVDACLSLMPQGWHSGLE | 3.76 ± 0.12 |
| LELKDNMAFDRSLFLKRHGG | -0.243 ± 0.28 |
| CWMFVVHIAIWGGVSLDGIV | 0.208 ± 1.1 |
| QEALLWTLNTLKKLSGRGST | -1.44 ± 0.55 |
| GLSWPTNRCRRALMESTSAP | inactive |
| ACFHGFPIYGCLLANAMCGR | 1.33 ± 0.67 |
| YLTSINLRVGGSWLCNNGRM | 1.96 ± 0.14 |
| EFFCAHLRADLVLKKNRVVF | -1.05 ± 0.78 |
| DLPYSSVIRKYMSKMWLHMN | 0.218 ± 0.36 |
| VSSHNLMPNRNWMFETQLSW | -0.297 ± 1.1 |
| CGRRILSRWVITLLVPGGSF | inactive |
| NYFVYNFLVV | 4.95 ± 0.099 |
| LYLWWILIYDHMAPKEW | -0.47 ± 0.63 |
| TFVLLRSW | 2.34 ± 0.13 |
| KSYLFESRKIGIVTNMGSYF | -0.594 ± 1.1 |
| PGFKSCIP | 0.598 ± 0.28 |
| VVTKQMSRFS | 0.701 ± 0.51 |

| Substance | amyloid nucleation score |
| --- | --- |
| TSLKYSVENTVASPVDRTWL | -0.055 ± 1.1 |
| ISRILRKYNVIVRSSSVSRG | -1.06 ± 0.31 |
| KSHLVF | -0.312 ± 0.65 |
| WHSHMYNWWEQ | 1.09 ± 0.28 |
| IILFTIARDLSRVGFRFLMA | -0.545 ± 0.56 |
| RATPTSLSIAMFCLFGHALL | 5.87 ± 0.079 |
| VIDVKFVGYILQVYVGVSFG | 0.026 ± 1.1 |
| TLENQVGSMSIGGFSGGYRR | 0.201 ± 1 |
| RDVFTFYNKGEFERCQTLVY | 0.092 ± 1.1 |
| WKIDWTNVNPFVRPVGTTNG | 0.917 ± 0.33 |
| ATHVCVGFTYGFWW | 2.4 ± 0.14 |
| FVTRGSVAMTQVGYNTVIRM | 5.64 ± 0.061 |
| SSIVEDGLTLLNGGNRIDGY | 0.445 ± 0.31 |
| CPMPITRSAVFACTITCSVA | 5.99 ± 0.079 |
| FMRFARMCS | 0.256 ± 0.16 |
| MSRNF | 4.87 ± 0.076 |
| VKSRRLTYNS | 0.192 ± 0.79 |
| VDLSLTHYCARSNYLGGPSF | 3.17 ± 0.076 |
| CHVCFRETARYMCVGWYYGS | -0.283 ± 0.65 |
| VDTRRMARKS | 1.28 ± 0.27 |
| LRFLLPPTMTVGMKFSSDAG | 0.062 ± 0.79 |
| HDLKLV | 0.266 ± 0.41 |
| GLVRERIDTAHPRSTSYC | 0.561 ± 0.62 |
| SLELA | 0.472 ± 0.8 |
| NGWIYAYDLLLERTSQSWKI | -0.472 ± 0.32 |

| Substance | amyloid nucleation score |
| --- | --- |
| CLKGKYESYNADVNAHYSLA | 0.13 ± 0.45 |
| IRYWSMLLEVG | 5.683 ± 0.046 |
| RMSIWRFRMSLAQDGLGRFQ | 5.564 ± 0.044 |
| SLWVYLVKMVEIFSLKD | -0.531 ± 0.55 |
| GYGDGILVSFSC | -0.986 ± 0.76 |
| GLSMCIWCRSIQMTTLGSRY | 0.365 ± 0.36 |
| ANPWDRSFIVKVCRSDVVRV | 0.246 ± 0.38 |
| ENNFYY | 0.953 ± 0.26 |
| VLYFLLLFFRD | inactive |
| IVVNNCSEVLEVGSDDAVKR | inactive |
| RTEDPKTDYVKRGKRKWRVW | -0.129 ± 1.1 |
| NMWTFRSIMIPALFYEIFIA | -1.75 ± 0.54 |
| TSARRQLDDQRAWPEMAN | 0.239 ± 0.62 |
| SPAWRNGDPRKKATPTHTGI | 0.004 ± 1.1 |
| SSLDWWSCSGFLNKQQIKSN | 1.08 ± 0.12 |
| CRVLGQRRGASTNVSVHIVE | -0.097 ± 1.1 |
| HRTKRGRHFIFRTCKQYYPG | 2.81 ± 0.071 |
| RYALFSARIYSLYWLWFCIF | inactive |
| SLSLQGLSFMPFCGRSGSVV | inactive |
| VCRPRTTNIGAWRRFRFLFW | -0.601 ± 0.41 |
| KWNQKKNRSCFKAQRWCKLP | -0.637 ± 1.1 |
| TDNVIMVERDRASKVCERKG | 0.433 ± 0.54 |
| VAILIMHCGAGSCRQMLMDS | 0.305 ± 0.45 |
| VLRSVRIFLDN | 1.3 ± 0.15 |
| MPPHSVSVITNSHF | inactive |

| Substance | amyloid nucleation score |
| --- | --- |
| CKFWYLARWWIFLWSPRYK | -0.153 ± 1.1 |
| YWWCRPILILCSNLDDVWSL | 7.6 ± 0.079 |
| TYRIGYMNQCTSR | -0.215 ± 0.35 |
| VLKCGHKYLVIDSWKL | 1.78 ± 0.092 |
| IEMLSNY | -0.575 ± 0.49 |
| GLQYQYSGLWVR | 0.236 ± 0.44 |
| NNDDQSFCAWVFNDVQ | 0.056 ± 0.6 |
| FFDSSCIFITHLL | 1.77 ± 0.18 |
| LDWPDLENQAVVVNTWVSE | 0.279 ± 0.5 |
| RPNFFVLNSNMNNYVQARVP | 4.59 ± 0.047 |
| MRCNYLAEYRFQRG | -0.669 ± 0.44 |
| RFSLYNLIIEVSAVVEFLWT | inactive |
| IKLLLMSLTVSVTGILQFKP | 4.51 ± 0.05 |
| CKLTRGSPMSYSEVR | -0.188 ± 0.29 |
| ISFDLCIKRWQK | 5.946 ± 0.054 |
| RVNTLLHILMYFNCLSGVEL | 4.88 ± 0.049 |
| TYMCQYDSLLTKTMINNRRG | -0.611 ± 0.61 |
| VFLVHPTFSFKNRVCLNFVW | -0.081 ± 1.1 |
| KINVSRFN | -0.146 ± 0.33 |
| LVVLNYGVIHNMNSWPWRWG | 9.861 ± 0.047 |
| LMAFCKLQDRNKTPLSSALF | inactive |
| RLFVPFVFFQAMPTEREPFH | -0.79 ± 1 |
| SYLVLIHKALSFGRTISDHP | -0.467 ± 0.29 |
| SECFRLSLRKGCNTNQVRNT | -0.989 ± 0.63 |
| IFQRWHIS | -2.67 ± 1.1 |

| Substance | amyloid nucleation score |
| --- | --- |
| RLCANDLIIGVEMGEGVFDY | 1.1 ± 0.31 |
| SHLKMDNPCLGF | -0.121 ± 0.25 |
| FYLRFNTFVSDTNCLTDWLA | 3.46 ± 0.087 |
| IMSSV | inactive |
| RSDRVIGDMTGAECITLGRL | -0.82 ± 0.45 |
| GVKAASGSSPKRGFYDWVKH | 0.307 ± 0.64 |
| RSFLWVFRKYRGW | 0.783 ± 0.66 |
| LFDLWSVEFC | -0.392 ± 0.43 |
| LRTIEASLMGVSNLKKWSFI | -0.299 ± 0.48 |
| VACVAHNTHYELTQQSYIYY | 5.609 ± 0.046 |
| WWQGI | -0.168 ± 1.1 |
| FYLGYQTRCYSLIGDIE | 3.51 ± 0.05 |
| LNFIGFK | 0.102 ± 0.74 |
| SFSRSGFCHMCSLSALTGLR | -0.196 ± 1.1 |
| CMTSKVLRLDYRRMMVNIDC | -0.58 ± 0.42 |
| EIYGFLVIICLLYGSLVSRW | -0.2 ± 0.45 |
| ERIFGFI | -1.45 ± 0.55 |
| IGIDRL | -0.069 ± 0.49 |
| LIDRIKWEGPFRIRWLFSWF | 0.566 ± 0.66 |
| ILLHIDNGRRSFSNIKATS | -0.886 ± 1.1 |
| EEYIRRQGVLTASLVYSKYI | inactive |
| RVVQPKFMLGVQYSAIQFNS | 2.47 ± 0.089 |
| FCVCARWCIVVSGLVCDLRY | -0.323 ± 0.63 |
| TDYYAMWFHSIGRFSG | -1.33 ± 0.38 |
| WPVCTSIYMVGWWSVHTYHG | 0.705 ± 0.8 |

| Substance | amyloid nucleation score |
| --- | --- |
| HQIHLSY | -0.593 ± 1.1 |
| IYALFLICLLHISVGLLMYR | -0.179 ± 0.63 |
| VTNCLTIWAFMGSRRCWKAP | 3.62 ± 0.11 |
| FQMMCSIDFNKCLPWLFS | inactive |
| DCLLGNSSPAV | -0.594 ± 1.1 |
| QVCFHDQ | -0.589 ± 0.48 |
| VIFIINELYGCIASNERVCA | 6.281 ± 0.049 |
| LRDKCAPCKCSRGSPLTSIC | -0.489 ± 0.63 |
| AFDEVSSFGGFFERCFWIKL | 5.91 ± 0.076 |
| QFSYLYLVMASRSLTAVIIV | -0.887 ± 0.3 |
| FKVTTFYHGLSSMKDVASSY | -0.95 ± 0.45 |
| GTMCFFMCTDYLYGSQTRLG | -0.054 ± 1.1 |
| GIKRMCMVPPVIKSNAYSLN | 2.95 ± 0.062 |
| IYYGSRISPTWAGRLLCGER | -0.185 ± 0.44 |
| PYQSTCSDRSFYVCVCELHW | 0.241 ± 0.8 |
| LGGGHKMDLFCYMISIWYYM | 2.77 ± 0.18 |
| MGSNAWVLNNACHGLFTSAS | 0.386 ± 0.35 |
| HRLFSY | -0.776 ± 0.63 |
| SYRSVYYLVMGFPIGHH | -1.67 ± 1 |
| SQHSRHRRQSVVYYAVDGVE | 1.21 ± 0.31 |
| NIGKMLRALFDMSNVRT | -1.17 ± 0.39 |
| FGLRIKPGEKV | 0.783 ± 0.74 |
| IVLSGWLSSPSYASWDFCMR | 0.07 ± 0.77 |
| QFWHKSVSTCLWCCSVAGSW | 8.73 ± 0.071 |
| SMLLVAFWWKGGWTRISPCQ | 0.762 ± 0.23 |

| Substance | amyloid nucleation score |
| --- | --- |
| TIYPFYEKRMRY | -0.459 ± 1.1 |
| TRTGCDMGRRLVCS | 0.171 ± 0.35 |
| MIVWWNYCGSAVPRKIL | -0.586 ± 1.1 |
| WINVGCVCLMVMHILPI | 5.4 ± 0.073 |
| SKGSGICRRISTEYDGVGQS | 0.6 ± 0.42 |
| RAYPNLENFLLWRMSNSYLC | -0.542 ± 0.63 |
| YTYTQTR | 0.25 ± 0.48 |
| PVNCGWQGEDRTVEILHAHG | 1.13 ± 0.28 |
| QYGVLSSETLGCTVFKWYVS | 0.468 ± 0.6 |
| GISSSHPRTNGHRQYLNFGV | -0.627 ± 0.61 |
| VFYVTYTS | 5.76 ± 0.074 |
| SLNFFIMSKSSTGVSSFLYV | 6.483 ± 0.038 |
| ALILAVLPSKDPIRVCWYSG | 0.04 ± 0.33 |
| SVYPTSGRYYLYRSLIFVGD | -0.57 ± 0.78 |
| YVKSRHTNYDGRSTLL | 3.12 ± 0.13 |
| VVNLDSF | -1.95 ± 0.62 |
| DINKFVAVWCHYLSGKGLLP | -0.359 ± 0.26 |
| KPRMWIYIFMAWEAYPAYI | inactive |
| STTLIEFSLYIRYYTND | 4.64 ± 0.084 |
| PHPIDNKRMTTPNIADAPPR | 0.56 ± 0.74 |
| PPNVLDCFNVL | -0.501 ± 0.64 |

From the supplement of paper PMC12042874
